# Measurements from paper doi:10.1101/2022.11.11.516098.
# B1: SL7 (SL7mod-UUC) RNA (structured_RNA)
# RNA: GUGUAAAAUGUUGCUAGCAAAUAUAUAUGCUAGUAACGUUUUACGCCCUCUUUCUUUCUU
# Legend:
# MLEΔG [1] = biological target: T1, MLEΔG (UniProt P24785 1-1158); assay: cryo-EM
# MLEΔGin = MLEΔGin (UniProt P24785 1-1158, E195C;S633C); assay: fluorescence polarization
# MLEΔG [2] = biological target: T1, MLEΔG; assay: fluorescence polarization
binder,measurement,setting,value
UUUUUUUUUU (ssRNA) [U10 RNA],binding result,MLEΔG [1],binds
CCUCUUUCUUUC (ssRNA) [UUC RNA (fluorescein)],IC50,MLEΔGin,280 ± 19 nM
same,IC50,MLEΔG [2],302 ± 43 nM
B1,apparent K (half saturation),MLEΔG [2],16 nM
